Legend:
[1] = target: rotavirus (RV) A VP3, full-length recombinant (rotavirus A); assay: crystal structure
[2] = target: rotavirus (RV) A VP3, full-length recombinant (rotavirus A); assay: SEC + AUC
[3] = target: rotavirus (RV) A VP3, full-length recombinant (rotavirus A); assay: cryo-EM structure

Measured: stoichiometry N

rotavirus (RV) A VP3, full-length recombinant (enzyme)
4: all assays above
